From patent US20140087995A1 (published 2014)
One block for each binder: values may come before it. Numbered stars: 1 amine (or outer) side, 2 acyl side, 3 side chain; on linkers, the order of the positions; unused ones are H or OH. Bridge positions count the residues as written; N and C are the ends. Square brackets hold non-standard residues; d marks the D form. Side chains are listed from the residue outwards. Ends that are not written are not given here. * marks the point of attachment. C20 diacid = O=C(O)CCCCCCCCCCCCCCCCCCC(=O)*; γGlu = O=C(O)[C@H](CCC(=O)[*:2])N[*:1]

Molecular target: T1, human calcitonin receptor (human, UniProt P30988 25-474)
T1 sequence (looked up): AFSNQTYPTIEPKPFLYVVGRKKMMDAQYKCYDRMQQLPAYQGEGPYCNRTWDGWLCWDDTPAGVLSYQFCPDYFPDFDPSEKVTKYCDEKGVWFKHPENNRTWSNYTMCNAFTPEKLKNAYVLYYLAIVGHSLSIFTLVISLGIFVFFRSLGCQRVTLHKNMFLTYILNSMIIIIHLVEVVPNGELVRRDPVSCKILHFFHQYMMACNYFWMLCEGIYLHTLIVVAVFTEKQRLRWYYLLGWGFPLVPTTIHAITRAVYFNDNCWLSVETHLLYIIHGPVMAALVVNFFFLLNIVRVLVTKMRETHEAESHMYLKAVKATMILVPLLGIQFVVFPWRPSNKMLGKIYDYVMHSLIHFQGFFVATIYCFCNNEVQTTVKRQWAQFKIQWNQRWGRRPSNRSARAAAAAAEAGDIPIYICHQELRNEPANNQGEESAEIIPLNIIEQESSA
Assay: cell-based or functional assay

hCTR funct. EC50 (pM): 2740 pM
B1: N^ε1-[(4S)-4-carboxy-4-(19-carboxynonadecanoylamino)butanoyl]-[Glu14,Arg17,Pro21,Pro27,Arg34,Glu35]-h-amylin (peptide)
peptide: K([γGlu-C20 diacid])CNTATCATQRLAEFLRHSSPNFGAIPSSTNVGRETY-NH2
modifications: disulfide 2-7; N-terminus assumed
SMILES: CC[C@H](C)[C@H](NC(=O)[C@H](C)NC(=O)CNC(=O)[C@H](Cc1ccccc1)NC(=O)[C@H](CC(N)=O)NC(=O)[C@@H]1CCCN1C(=O)[C@H](CO)NC(=O)[C@H](CO)NC(=O)[C@H](Cc1c[nH]cn1)NC(=O)[C@H](CCCNC(=N)N)NC(=O)[C@H](CC(C)C)NC(=O)[C@H](Cc1ccccc1)NC(=O)[C@H](CCC(=O)O)NC(=O)[C@H](C)NC(=O)[C@H](CC(C)C)NC(=O)[C@H](CCCNC(=N)N)NC(=O)[C@H](CCC(N)=O)NC(=O)[C@@H](NC(=O)[C@H](C)NC(=O)[C@@H]1CSSC[C@H](NC(=O)[C@@H](N)CCCCNC(=O)CC[C@H](NC(=O)CCCCCCCCCCCCCCCCCCC(=O)O)C(=O)O)C(=O)N[C@@H](CC(N)=O)C(=O)N[C@@H]([C@@H](C)O)C(=O)N[C@@H](C)C(=O)N[C@@H]([C@@H](C)O)C(=O)N1)[C@@H](C)O)C(=O)N1CCC[C@H]1C(=O)N[C@@H](CO)C(=O)N[C@@H](CO)C(=O)N[C@H](C(=O)N[C@@H](CC(N)=O)C(=O)N[C@H](C(=O)NCC(=O)N[C@@H](CCCNC(=N)N)C(=O)N[C@@H](CCC(=O)O)C(=O)N[C@H](C(=O)N[C@@H](Cc1ccc(O)cc1)C(N)=O)[C@@H](C)O)C(C)C)[C@@H](C)O
notes: synthetic peptide amide

hCTR funct. EC50 (pM): 100000 pM
B2: N^ε1-[(4S)-4-carboxy-4-[[(4S)-4-carboxy-4-(19-carboxynonadecanoylamino)butanoyl]amino]butanoyl]-[D-Asp14,Arg17,Pro21,Pro27,Arg35]-h-amylin (peptide)
peptide: K([γGlu-γGlu-C20 diacid])CNTATCATQRLA[dD]FLRHSSPNFGAIPSSTNVGSRTY-NH2
modifications: disulfide 2-7; N-terminus assumed
SMILES: CC[C@H](C)[C@H](NC(=O)[C@H](C)NC(=O)CNC(=O)[C@H](Cc1ccccc1)NC(=O)[C@H](CC(N)=O)NC(=O)[C@@H]1CCCN1C(=O)[C@H](CO)NC(=O)[C@H](CO)NC(=O)[C@H](Cc1c[nH]cn1)NC(=O)[C@H](CCCNC(=N)N)NC(=O)[C@H](CC(C)C)NC(=O)[C@H](Cc1ccccc1)NC(=O)[C@@H](CC(=O)O)NC(=O)[C@H](C)NC(=O)[C@H](CC(C)C)NC(=O)[C@H](CCCNC(=N)N)NC(=O)[C@H](CCC(N)=O)NC(=O)[C@@H](NC(=O)[C@H](C)NC(=O)[C@@H]1CSSC[C@H](NC(=O)[C@@H](N)CCCCNC(=O)CC[C@H](NC(=O)CC[C@H](NC(=O)CCCCCCCCCCCCCCCCCCC(=O)O)C(=O)O)C(=O)O)C(=O)N[C@@H](CC(N)=O)C(=O)N[C@@H]([C@@H](C)O)C(=O)N[C@@H](C)C(=O)N[C@@H]([C@@H](C)O)C(=O)N1)[C@@H](C)O)C(=O)N1CCC[C@H]1C(=O)N[C@@H](CO)C(=O)N[C@@H](CO)C(=O)N[C@H](C(=O)N[C@@H](CC(N)=O)C(=O)N[C@H](C(=O)NCC(=O)N[C@@H](CO)C(=O)N[C@@H](CCCNC(=N)N)C(=O)N[C@H](C(=O)N[C@@H](Cc1ccc(O)cc1)C(N)=O)[C@@H](C)O)C(C)C)[C@@H](C)O
notes: synthetic peptide amide

hCTR funct. EC50 (pM): 7280 pM
B3: N^ε1-[(4S)-4-carboxy-4-[[(4S)-4-carboxy-4-(19-carboxynonadecanoylamino)butanoyl]amino]butanoyl]-[Asp14,Arg17,Pro21,Pro27,Pro34,Arg35]-h-amylin (peptide)
peptide: K([γGlu-γGlu-C20 diacid])CNTATCATQRLADFLRHSSPNFGAIPSSTNVGPRTY-NH2
modifications: disulfide 2-7
notes: synthetic peptide amide; also called compound 130

hCTR funct. EC50 (pM): 5580 pM
B4: N^ε1-[(4S)-4-carboxy-4-(19-carboxynonadecanoylamino)butanoyl]-[Glu14,Arg17,Pro21,Pro27,His35]-h-amylin (peptide)
peptide: K([γGlu-C20 diacid])CNTATCATQRLAEFLRHSSPNFGAIPSSTNVGSHTY-NH2
modifications: disulfide 2-7; N-terminus assumed
SMILES: CC[C@H](C)[C@H](NC(=O)[C@H](C)NC(=O)CNC(=O)[C@H](Cc1ccccc1)NC(=O)[C@H](CC(N)=O)NC(=O)[C@@H]1CCCN1C(=O)[C@H](CO)NC(=O)[C@H](CO)NC(=O)[C@H](Cc1c[nH]cn1)NC(=O)[C@H](CCCNC(=N)N)NC(=O)[C@H](CC(C)C)NC(=O)[C@H](Cc1ccccc1)NC(=O)[C@H](CCC(=O)O)NC(=O)[C@H](C)NC(=O)[C@H](CC(C)C)NC(=O)[C@H](CCCNC(=N)N)NC(=O)[C@H](CCC(N)=O)NC(=O)[C@@H](NC(=O)[C@H](C)NC(=O)[C@@H]1CSSC[C@H](NC(=O)[C@@H](N)CCCCNC(=O)CC[C@H](NC(=O)CCCCCCCCCCCCCCCCCCC(=O)O)C(=O)O)C(=O)N[C@@H](CC(N)=O)C(=O)N[C@@H]([C@@H](C)O)C(=O)N[C@@H](C)C(=O)N[C@@H]([C@@H](C)O)C(=O)N1)[C@@H](C)O)C(=O)N1CCC[C@H]1C(=O)N[C@@H](CO)C(=O)N[C@@H](CO)C(=O)N[C@H](C(=O)N[C@@H](CC(N)=O)C(=O)N[C@H](C(=O)NCC(=O)N[C@@H](CO)C(=O)N[C@@H](Cc1c[nH]cn1)C(=O)N[C@H](C(=O)N[C@@H](Cc1ccc(O)cc1)C(N)=O)[C@@H](C)O)C(C)C)[C@@H](C)O
notes: synthetic peptide amide

hCTR funct. EC50 (pM): 8660 pM
B5: N^ε1-[(4S)-4-carboxy-4-[[(4S)-4-carboxy-4-(19-carboxynonadecanoylamino)butanoyl]amino]butanoyl]-[Arg17,Pro21,Pro27,Pro31,Pro34,Arg35]-h-amylin (peptide)
peptide: K([γGlu-γGlu-C20 diacid])CNTATCATQRLANFLRHSSPNFGAIPSSTPVGPRTY-NH2
modifications: disulfide 2-7; N-terminus assumed
SMILES: CC[C@H](C)[C@H](NC(=O)[C@H](C)NC(=O)CNC(=O)[C@H](Cc1ccccc1)NC(=O)[C@H](CC(N)=O)NC(=O)[C@@H]1CCCN1C(=O)[C@H](CO)NC(=O)[C@H](CO)NC(=O)[C@H](Cc1c[nH]cn1)NC(=O)[C@H](CCCNC(=N)N)NC(=O)[C@H](CC(C)C)NC(=O)[C@H](Cc1ccccc1)NC(=O)[C@H](CC(N)=O)NC(=O)[C@H](C)NC(=O)[C@H](CC(C)C)NC(=O)[C@H](CCCNC(=N)N)NC(=O)[C@H](CCC(N)=O)NC(=O)[C@@H](NC(=O)[C@H](C)NC(=O)[C@@H]1CSSC[C@H](NC(=O)[C@@H](N)CCCCNC(=O)CC[C@H](NC(=O)CC[C@H](NC(=O)CCCCCCCCCCCCCCCCCCC(=O)O)C(=O)O)C(=O)O)C(=O)N[C@@H](CC(N)=O)C(=O)N[C@@H]([C@@H](C)O)C(=O)N[C@@H](C)C(=O)N[C@@H]([C@@H](C)O)C(=O)N1)[C@@H](C)O)C(=O)N1CCC[C@H]1C(=O)N[C@@H](CO)C(=O)N[C@@H](CO)C(=O)N[C@H](C(=O)N1CCC[C@H]1C(=O)N[C@H](C(=O)NCC(=O)N1CCC[C@H]1C(=O)N[C@@H](CCCNC(=N)N)C(=O)N[C@H](C(=O)N[C@@H](Cc1ccc(O)cc1)C(N)=O)[C@@H](C)O)C(C)C)[C@@H](C)O
notes: synthetic peptide amide

hCTR funct. EC50 (pM): 2540 pM
B6: N^ε1-[(4S)-4-carboxy-4-(19-carboxynonadecanoylamino)butanoyl]-[Glu14,Arg17,Pro21,Pro27,His34,Glu35]-h-amylin (peptide)
peptide: K([γGlu-C20 diacid])CNTATCATQRLAEFLRHSSPNFGAIPSSTNVGHETY-NH2
modifications: disulfide 2-7; N-terminus assumed
SMILES: CC[C@H](C)[C@H](NC(=O)[C@H](C)NC(=O)CNC(=O)[C@H](Cc1ccccc1)NC(=O)[C@H](CC(N)=O)NC(=O)[C@@H]1CCCN1C(=O)[C@H](CO)NC(=O)[C@H](CO)NC(=O)[C@H](Cc1c[nH]cn1)NC(=O)[C@H](CCCNC(=N)N)NC(=O)[C@H](CC(C)C)NC(=O)[C@H](Cc1ccccc1)NC(=O)[C@H](CCC(=O)O)NC(=O)[C@H](C)NC(=O)[C@H](CC(C)C)NC(=O)[C@H](CCCNC(=N)N)NC(=O)[C@H](CCC(N)=O)NC(=O)[C@@H](NC(=O)[C@H](C)NC(=O)[C@@H]1CSSC[C@H](NC(=O)[C@@H](N)CCCCNC(=O)CC[C@H](NC(=O)CCCCCCCCCCCCCCCCCCC(=O)O)C(=O)O)C(=O)N[C@@H](CC(N)=O)C(=O)N[C@@H]([C@@H](C)O)C(=O)N[C@@H](C)C(=O)N[C@@H]([C@@H](C)O)C(=O)N1)[C@@H](C)O)C(=O)N1CCC[C@H]1C(=O)N[C@@H](CO)C(=O)N[C@@H](CO)C(=O)N[C@H](C(=O)N[C@@H](CC(N)=O)C(=O)N[C@H](C(=O)NCC(=O)N[C@@H](Cc1c[nH]cn1)C(=O)N[C@@H](CCC(=O)O)C(=O)N[C@H](C(=O)N[C@@H](Cc1ccc(O)cc1)C(N)=O)[C@@H](C)O)C(C)C)[C@@H](C)O
notes: synthetic peptide amide; also called compound 107

hCTR funct. EC50 (pM): 843 pM
Binder: K([γGlu-γGlu-C20 diacid])CNTATCATQRLADFLRHSSPNFGAIPSSTNVGPETY-NH2 (disulfide 2-7, synthetic peptide amide)

hCTR funct. EC50 (pM): 1450 pM
Binder: K([γGlu-C20 diacid])CNTATCATQRLAEFLRHSSPNFGAIPSSTNVGPHTY-NH2 (disulfide 2-7, synthetic peptide amide)

hCTR funct. EC50 (pM): 6380 pM
B7: N^ε1-[(4S)-4-carboxy-4-(19-carboxynonadecanoylamino)butanoyl]-[Glu14,Arg17,Pro21,Pro27,Pro34,Arg35]-h-amylin (peptide)
peptide: K([γGlu-C20 diacid])CNTATCATQRLAEFLRHSSPNFGAIPSSTNVGPRTY-NH2
modifications: disulfide 2-7; N-terminus assumed
SMILES: CC[C@H](C)[C@H](NC(=O)[C@H](C)NC(=O)CNC(=O)[C@H](Cc1ccccc1)NC(=O)[C@H](CC(N)=O)NC(=O)[C@@H]1CCCN1C(=O)[C@H](CO)NC(=O)[C@H](CO)NC(=O)[C@H](Cc1c[nH]cn1)NC(=O)[C@H](CCCNC(=N)N)NC(=O)[C@H](CC(C)C)NC(=O)[C@H](Cc1ccccc1)NC(=O)[C@H](CCC(=O)O)NC(=O)[C@H](C)NC(=O)[C@H](CC(C)C)NC(=O)[C@H](CCCNC(=N)N)NC(=O)[C@H](CCC(N)=O)NC(=O)[C@@H](NC(=O)[C@H](C)NC(=O)[C@@H]1CSSC[C@H](NC(=O)[C@@H](N)CCCCNC(=O)CC[C@H](NC(=O)CCCCCCCCCCCCCCCCCCC(=O)O)C(=O)O)C(=O)N[C@@H](CC(N)=O)C(=O)N[C@@H]([C@@H](C)O)C(=O)N[C@@H](C)C(=O)N[C@@H]([C@@H](C)O)C(=O)N1)[C@@H](C)O)C(=O)N1CCC[C@H]1C(=O)N[C@@H](CO)C(=O)N[C@@H](CO)C(=O)N[C@H](C(=O)N[C@@H](CC(N)=O)C(=O)N[C@H](C(=O)NCC(=O)N1CCC[C@H]1C(=O)N[C@@H](CCCNC(=N)N)C(=O)N[C@H](C(=O)N[C@@H](Cc1ccc(O)cc1)C(N)=O)[C@@H](C)O)C(C)C)[C@@H](C)O
notes: synthetic peptide amide
